This is an account of results in a protein production outcome set (Wang et al. 2014).

A short description of this data set: label from the status in PepcDB records.
Consider “MFRQSKRRIASRKNFSSYDDIVKSELDVGNTNAANQIILSSSSSEEEKKLYARLYESKLSFYDLPPQGEITLEQFEIWAIDRLKILLEIESCLSRNKSIKEIETIIKPQFQKLLPFNTESLEDRKKDYYSHFILRLCFCRSKELREKFVRAETFLFKIRFNMLTSTDQTKFVQSLDLPLLQFISNEEKAELSHQLYQTVSASLQFQLNLNEEHQRKQYFQQEKFIKLPFENVIELVGNRLVFLKDGYAYLPQFQQLNLLSNEFASKLNQELIKTYQYLPRLNEDDRLLPILNHLSSGYTIADFNQQKANQFSENVDDEINAQSVWSEEISSNYPLCIKNLMEGLKKNHHLRYYGRQQLSLFLKGIGLSADEALKFWSEAFTRNGNMTMEKFNKEYRYSFRHNYGLEGNRINYKPWDCHTILSKPRPGRGDYHGCPFRDWSHERLSAELRSMKLTQAQIISVLDSCQKGEYTIACTKVFEMTHNSASADLEIGEQTHIAHPNLYFERSRQLQKKQQKLEKEKLFNNGNH”, for which the protein production entry is “failed”.

In the case of “MFRTALRNVFAHKARLLMTVLAVMLGVAFVSGTLVFADTLSNAFRNQSAKSYQDVAVAVTSYADSDNPKDEYALSDEVLDRISAVDGVAGVYGRVEGFAGVADPDGKLIGVGWSNKGSNFAPGKDGKDAAYTFTDGSGPVKDDQIALDEDSAGKGEYQVGDRVRVATNGPVKEYTLSGVFTTEDGAVNAGGSLVLFDTAVAQKQYLRPGYFESATVAAAPGADDARILKAVEPLLPDTAEAQTGRALADEQADQIEQGMGNLKQVLLGFAGIALFVGIFLISNTFTMLVAQRTKEIALMRAVGASRRQITRSVLAEAALVGLVASAVGFALGVGLAVGLRSGMAAFDMKMPAGPLVLSATPVVAAFAVGVLITVFAAWLPGRRAAKIPPVAAMNS”, the protein production entry is on record as “failed”.

“MFRVLHLADLHLGYRPDLPAPVREEVYRARNRVLQAAVDLALDPRQGISLVLIAGDLFDNHRPEASLVEETIRQLTRLEAAGIQVITVPGNHDEITYNDAVYRREAGRWPGLLVTDPMPAKVATLKVKGDTCHLMAMAYTGGVTRVDGPLKAFPPAEGEGVNLAVFHGSLDWDGGERSLPLDGEALAAAGYDYIALGHIHRGGQRRLGRGLAVYAGMVAGKGFADPGTGSWTIVTLGDGPARVEQVPARVTPWRLVDLDVTAFQEPEELETAVRDALDPGALMQVRLTGSLAFDLDLEGLQARLGHPCPYLELVNETAGWTPEILESIAAEPTIRGLFVRRLQEKLAGSAGPGEAEVIRRAIFRGLLALKGGSR”: the protein production entry is “failed”.

For the sequence “MFSAKKLSPADKLKNISSMLEEIVEDTTVPRNIRAAADNAKNALHNEEQELIVRSATAIQYLDDISEDPNMPIHTRTQIWGIVSELETIK”, the protein production entry is “not failed”.

Regarding “MFSFPAVLEAGIVFLYIAVALFLATLGIWIARTFLMPNVIKEDWNSLNRISFTTVIPLSASVMNAAIIAYYGFNVHYEYLYLVNYFIDFTSILFLSFFLGYKLYTKSPVHTNEISYGLLIPPVAISSNVLLGSSLMRTQYFNSIIFLTVIGVGIALFLFLFIGIMTFASYIRDQKANAPSPMLVLPVGVSSIIVINILAIATAKSVFQIPMADALTVSFMLWAFELWNFVVAMMISLKRVFREPATISIWAYTFPMAIFSVSSLDLRSIIGRYGYITASNIVYYIGIGAWVILIVAWVYAVMSTAIFLSHIKMIAYPG”, the protein production result is “failed”.

As for “MFSGKRLKKRRITLGYSQSELADKLHINRSSYFNWENEKTKPNQSNLKQLAILLDVPETYFESEYKIVNTYLQLSLQNQEKVEKYAEELLQTQKVHEKIVPLFAVEVLSEIQLSAGPGEGLYDEFETETVYSEDEYTGFDIATWISGNSMEPVYKDGEVALIRSTGFDHDGAVYALNWNGSLYIKKLYREEDGFRMVSINPDVAERFIPFEDEIRIVGKIVGHFMPVIGGLEHHHHHH”, the protein production entry is on record as “not failed”.

Consider “MFSLSFPSSSSALLPSLVAFDSSRRLSLQPKKLNRLQSHLFSPQHLSFSQSNVSRYRAFCVSSSSPPEGTVSVVDFHEKDWSFLESMEIDSTEHTQKIERIIKAGELSESSRVLVSISSETFVDRLVESSPSQLLLIVHDSLFTLACIKEKYDKVKCWQGEMIYVPEKWSPLDAVFLYFLPALPFDLDELFKTLSQRCSSGARVVISHPQGRLGLEQQRKEFSDVVVSDLPDESTLSNVAEKHSFELTQFVDEQGLYLAVLKSSKQ”, for which the protein production result is “failed”.

Regarding “MFSNVNKTTSAEAGKSAFWAMSIFLLLLSIMLLVLGLYYQIVLHHTPAPLLLGIAAGFGLGTPLEIWNFSDPDTLMRVMAFQDRFLIVCFGFSIGLGAILLYLFAAIPGVSPHYGIKDFFVFGVVVGGLLFGVGVGLAGYFPGTIWIALGQGRRDAIYAVFGGLLGALTWSLIFGAARGFFWNTFNYGPITWYSIFGIKSHLEIFGTSLIFGAILLGMFLFLPRYPKQPVKESCGFHLAGKNNKVLTFDDMIDDENKKYPDQNQYLIRLTNESSIRNARSIIVLGIAFTVIAVAVILLRQIFGESTTYSWIGAQLFYAVNPQYAASNPYWNLFGGMHIVNGKPIDLPFSEIGWEPFSDLGTFLGGLISSIFISKRFMKFKKRVPLVWEHRFGPSDKKRFVGSFFGAFLVLFGARMANGCASGHVLSGNIQMAISSFVFLMAVLIGSWLTLYFVMGLKLNSRGYRN”, the protein production entry is “failed”.

As for “MFSPEGPTRRELAVQALSSVERGYDLLAPKFDHTPYRTPDRVLDAVARGLEPLGPFAAGLDLCCGTGAGVEVLARVCQRDVTGVDFSAGMLEVARRRTLPPGPEVSWVRADARALPFGPAFDLVVSFGAFGHFLPRELPGLFGQVRSVLRPDGCFAFPVAAPPRPGSPGYWTLLGFDAAMRVRNALWRPPFVMYYRTFRLGAVGRELSRAGFRTDLHALPEFGRRPDGSPRARLVVARRLP”, the protein production result is listed as “failed”.

As to “MFSQTIFFGMKQSARGVSVAFSTLQEASMHKRVLIQAASALLALQFMAVPVFAAGSSGGGSDQTVTQCKKGEVWDKKKKKCVAPQEGMLDDDSIYDAGHALAMAGRYDEAISVLTLAANKQDPRILNYLGYSHRHSGRVTVGLGYYEEALRIDPNYTLVREYLGEAHLQIGDLAGAQQQLMEIEKRTGKGSREYGMLSEQIDHFMRS”, the protein production entry is “failed”.

Regarding “MFSSFSSRRRFRDLSDAEILALAISSEEDDARIYRSYADRLRAPYPGTAALFEAMAEEEDSHRRRLIGTFRDRFGETIPLIRREHVEGYPSRKPVWLLETLPLERVRREAWEMENAARSFYETAARHVTDASTRKLLGDLAAAEAAHEHRAERLAEEHLTDEATAAEDETARRQFILTWVQPGLAGLMDGSVSTLAPIFATAFATQDPATTFQVALAASVGAGISMGFTEAAHDDGVLSGRGAPWKRGLASGVMTTAGGLGHALPYLIPDFAWATGIAIAVVFFELWAIAWIQNRYMETPFLRAALQVVLGGGLVLAAGILIGFG”, the protein production entry is “failed”.

In the case of “MFTGMIRLVTLGTFAAALLSSPALAAGGGGGGGGGGSISSTDPYAGAYSDQKPQPTYPKRPGTKATQKGKKQGNQSSIGDPAFAAGYRVAYDTIYERNDYATAIAQLKSLGHDDHPNVANLIGYSYRKLGDYEQSQVWYERALRADPNHVQTWQYYGLWQLERGNREQALYHLGRIASICGTDCDEYRSLAAALDKPSGTALVY”, the protein production entry is on record as “failed”.

In the case of “MFTLALPTPPPLAQARGSGLSAAFAAGAVIPVGDTPGGIALTPTGTRAYVANHGSNTVSVLDTVTDTVIDTIATGGGPNAVAFSPDGTRAYVTVADDGLVSVIDTATNTIVTDIAVGAGATGVAVTPDGSRVYVTLQSSDTVGVIDTATNTVTASIPAAGTPLGLVITPDGTRAYVACLFANAVRVIDTATNTVIATIPVGPVPILLAVSPGGTHVYVTNVGNSTVSVIDTATSAVIATVGVSAQPRFAAVSPDGFHVYVANSGPDTVSVIDTATQTVVENIGVGDGPTGIALLPDGTRAYVTNAVAGTVGVMATTVIPDQGSTAGGTTVTLTGHHLANATAVHFGTAQAVITANTATSMTVTAPAGSGAVPVTVTTAGGTGTLGHFYYVPVPALSGINPAAGPVAGSDDEIVLTGRHLAGAIDVYFGTTRAVIQTVSDNQVTVRAAGAPAPGGTAVTVITAGGSAGGLSYTYLDPSTVTGVSPDSGPTTGGTEVTITGTGLAGTEQVTFNGIPAAFTVVSDSTLTATTPPSGAAGPVGVTVTGPGGAPAGTFTYVSEPDI”, the protein production entry is recorded as “failed”.

Consider “MFTLRELPFAKDSMGDFLSPVAFDFHHGKHHQTYVNNLNNLIKGTDFEKSSLFDILTKSSGGVFNNAAQIYNHDFYWDCLSPKATALSDELKGALEKDFGSLEQFKEDFIKSATTLFGSGWNWVAYNLDTQKIEIIQTSNAQTPVTDKKVPLLVVDVWEHAYYIDHKNARPVYLEKFYEHINWHFVSQCYEWAKKEGLGSVDYYINELVHKKA”, for which the protein production result is on record as “failed”.

On to “MFTRRGDQGETDLANRARVGKDSPVVEVQGTIDELNSFIGYALVLSRWDDIRNDLFRIQNDLFVLGEDVSTGGKGRTVTREMIDYLEARVKEMKAEIGKIELFVVPGGSIESASLHMARAVSRRLERRIVAASKLTEINKNVLIYANRLSSILFMHALLSNKRLNIPEKIWSIHRVS”, for which the protein production result was “not failed”.

With “MFVDRIVLSFRGAGLERANTCLRKGQRLRKACSHVFRPLCSSDLPVNLPTDLETKRVMKPPLAERESIWSYPRPPRVEPNTRHLRVVHNQVTIAETRRGYRVLEYSHPPSYYIPLDDIDLQYVMVSSKVRSTFCEFKGEATYYDVEVGWEVSEGAAWSYDFPTRAYRMLKDHIAFYPAKVDACWVDEYRVRPEPRSFYGGWVTPLVKGVYPEEDVEDDEDSSGGDGKDSATQ”, the protein production entry was “not failed”.

As for “MFVFIPLFTIFILLAGGYFAKRIGVLKQKQARTFLDFAIIFALPCLIFDKAYHLNFDFSLIIFIFIGLFSCILAAFFAILIGKVFHFSKVTLVSMFLLSCFGNTIFVGMPIVAGIFNDPQFSAEVIFYDALATTLPISLFGPFILSLGNGEKVSLLANVKKILSFPPFLALLFGFLCKLITLPEFIFSPIRLFGASATPVALFAIGLGLGFMAIKTSYKPTIVVIFTKMILAPLFFVFCLKIFNLELKDSTIVAIIESAAPTMTLAGAMVMKAKLDSNLAVSAVAFGVLFAFVSMPILIWTLL”, the protein production result was “failed”.

Take “MFVLKNFKIVFSYFPIVLQYILNVALICLGVVLSVFLMKEVIQFMQELKLDGNESSYHLIDSIVVFFLYFEFIVMIIKYFQMNFHFPLRYFIYIGITAIVRLIIIDHDSPLDLLLYACAIFVLISALFIANSKMMRWDLE”: the protein production entry is reported as “failed”.

As to “MFVVAVANTKGGCGKTTLATHLAASFACRGYATGLADLDRQKSALGWLKRRPEGAAPIQGINLAREEDIPEGIERLVVDAAAAMDKDVVKDIVRRADLVVVPVLPGVFDEDGTARFVGHLESLKSIRKNRRDVAFVANRVRLNTRALTRLGGFLEELSFPVIARLRDTQHYTAAAAEGLSLFDLPGGRAADYRAEWTPLLDFIEIRVRGLEHHHHHH”, the protein production entry was “not failed”.

Turning to “MFYPDPFDVIIIGGGHAGTEAAMAAARMGQQTLLLTHNIDTLGQMSCNPAIGGIGKGHLVKEVDALGGLMAKAIDQAGIQFRILNASKGPAVRATRAQADRVLYRQAVRTALENQPNLMIFQQAVEDLIVENDRVVGAVTQMGLKFRAKAVVLTVGTFLDGKIHIGLDNYSGGRAGDPPSIPLSRRLRELPLRVGRLKTGTPPRIDARTIDFSVLAQQHGDNPMPVFSFMGNASQHPQQVPCYITHTNEKTHDVIRSNLDRSPMYAGVIEGVGPRYCPSIEDKVMRFADRNQHQIFLEPEGLTSNEIYPNGISTSLPFDVQMQIVRSMQGMENAKIVRPGYAIEYDFFDPRDLKPTLESKFIQGLFFAGQINGTTGYEEAAAQGLLAGLNAARLSDDKEGWAPARSQAYLGVLVDDLCTLGTKEPYRMFTSRAEYRLMLREDNADLRLTEIGRELGLVDDERWARFNEKLENIERERQRLKSTWVTPSAEAAAEVNAHLTAPLSREASGEDLLRRPEMTYEKLTTLTPFAPALTDEQAAEQVEIQVKYEGYIARQQDEIEKQLRNENTLLPATLDYRQVSGLSNEVIAKLNDHKPASIGQASRISGVTPAAISILLVWLKKQGMLRRSA”, the protein production entry is on record as “not failed”.
